Source: patent publication US20230059344A1

Molecular target: h4-1-BB on a genetically engineered Jurkat T cell line (Promega 4-1BB Bioassay) (human) (UniProt Q07011)
Assay: cell-based or functional assay
Details: scale: relative luciferase

Sequence of h4-1-BB on a genetically engineered Jurkat T cell line (Promega 4-1BB Bioassay) (human) (Q07011 24-255, change not shown): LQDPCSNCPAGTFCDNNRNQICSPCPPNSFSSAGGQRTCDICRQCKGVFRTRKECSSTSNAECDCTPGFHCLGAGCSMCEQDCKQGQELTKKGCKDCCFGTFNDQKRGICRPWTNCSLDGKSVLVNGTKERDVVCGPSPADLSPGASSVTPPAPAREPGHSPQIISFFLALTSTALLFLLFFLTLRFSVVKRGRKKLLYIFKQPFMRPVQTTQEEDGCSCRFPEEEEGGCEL

Substance: His-tagged h4-1BBL cross-linked with an Fc (from UniProt P41273 71-254) (ligand)
- luciferase expression by Jurkat-h4-1BB cells: 1
